# Reference: US20030144176
# B1: HA-tagged activated MEK5 (MEK5DD), MEK5β splice isoform with aspartate substitutions of serine-222 and threonine-226 (protein)
# chain: MEQQVNGQLIEPLQIFPRACKPPGERNIHGLKVNTRAGPSQHTSPVVSDSLPSNSLKKSSAELRKILANGQMNEQDIRYRDTLGHGNGGTVYKAYHVPSGKILAVKVILLDITLELQKQIMSELEILYKCDSSYIIGFYGAFFVENRISICTEFMDGGSLDVYRKIPEHVLGRIAVAVVKGLTYLWSLKILHRDVKPSNMLVNTSGQVKLCDFGVSTQLVNDIAKDYVGTNAYMAPERISGEQYGIHSDVWSLGISFMELALGRFPYPQIQKNQGSLMPLQLLQCIVDEDSPVLPLGEFSEPFVHFITQCMRKQPKERPAPEELMGHPFIVQFNDGNATVVSMWVCRALEERRSQQGPP
# B2: HA-tagged wild-type MEK5 (MEK5WT), MEK5β splice isoform (protein)
# chain: MEQQVNGQLIEPLQIFPRACKPPGERNIHGLKVNTRAGPSQHTSPVVSDSLPSNSLKKSSAELRKILANGQMNEQDIRYRDTLGHGNGGTVYKAYHVPSGKILAVKVILLDITLELQKQIMSELEILYKCDSSYIIGFYGAFFVENRISICTEFMDGGSLDVYRKIPEHVLGRIAVAVVKGLTYLWSLKILHRDVKPSNMLVNTSGQVKLCDFGVSTQLVNSIAKTYVGTNAYMAPERISGEQYGIHSDVWSLGISFMELALGRFPYPQIQKNQGSLMPLQLLQCIVDEDSPVLPLGEFSEPFVHFITQCMRKQPKERPAPEELMGHPFIVQFNDGNATVVSMWVCRALEERRSQQGPP
# B3: endogenous ERK5 immunoprecipitated from neonatal rat cardiomyocytes (protein)
# chain: AEPLKEEDGEDGSGEPPGRVKAEPVHTAASVVAKNLALLKARSFDVTFDVGDEYEIIETIGNGAYGVVSSARRRLTGQQVAIKKIPNAFDVVTNAKRTLRELKILKHFKHDNIIAIKDILRPTVPYGEFRSVYVVLDLMESDLHQIIHSSQPLTLEHVRYFLYQLLRGLKYMHSAQVIHRDLKPSNLLVNENCELKIGDFGMARGLCTSPAEHQYFMTEYVATRWYRAPELMLSLHEYTQAIDLWSVGCIFGEMLARRQLFPGKNYVHQLQLIMMVLGTPSPAVIQAVGAERVRAYIQSLPPRQPVPWETVYPGADRQALSLLGRMLRFEPSARISAAAALRHPFLAKYHDPDDEPDCAPPFDFAFDREALTRERIKEAIVAEIEDFHARREGIRQQIRFQPSLQPVASEPVCPDVEMPSPWAPSGDCAMESPPPALPPCSGPAPDTVDLTLQPAPPASELAPPKREGAISDNTKAALKAALLKSLRSRLRDGPSAPLEAPEPRKPVTAQERQREREEKRRRRQERAKEREKRRQERERKERGAGTLGGPSTDPLAGLVLSDNDRSLLERWTRMARPPVPAPAPAPAPTPKPSSAQPTSPPNGPVSQSTAPLQPAGSIPGPASQPVCPPPGPVPQPAGPVPAPLQTAPSTSLLASQSLVPPSGLPGSGAPEVLPYFPSGPPPPDPGLTPQPSTSESPDVNLVTQQLSKSQVEDPLPPVFSGTPKGSGAGYGVGFDLEEFLNQSFDMGVADGPQDGQADSASLSASLLADWLEGHGMNPADIESLQREIQMDSPMLLSDLPDLQEP
# What was measured:
# [1] = molecular target: GST-ERK5KMΔ, a truncated, catalytically inactive form of ERK5 with lysine-83 mutated to methionine, fused to glutathione-S-transferase
# [2] = molecular target: glutathione-S-transferase (GST) fused to MEF2C amino acids 204-321
Protein,IP kinase assay: 32P phosphorylation of GST-ERK5KM substrate by immunoprecipitated HA-MEK5 [1],ERK5 immunoprecipitation (IP) kinase assay: 32P phosphorylation of GST-MEF2C [2]
B1,AdMEK5DD produced a constitutively active kinase,
B2,Some kinase activity was also observed with the AdMEK5WT virus,
B3,,Phosphorylation of GST-MEF2C indicated that ERK5 was activated 2-4 fold by hypertrophic agents
